This note sets out measurements from patent US20140087995A1 (published 2014).

Like-named read-outs stand apart in the source and are kept apart here. Numbered stars: 1 amine (or outer) side, 2 acyl side, 3 side chain; on linkers, the order of the positions; unused ones are H or OH. Bridge positions count the residues as written; N and C are the ends. * marks the point of attachment. C20 diacid = O=C(O)CCCCCCCCCCCCCCCCCCC(=O)*; γGlu = O=C(O)[C@H](CCC(=O)[*:2])N[*:1]

Holding throughout (assay): cell-based or functional assay
Assay [1] deals with T1, human calcitonin receptor (human, UniProt P30988 25-474).
T1 sequence (looked up): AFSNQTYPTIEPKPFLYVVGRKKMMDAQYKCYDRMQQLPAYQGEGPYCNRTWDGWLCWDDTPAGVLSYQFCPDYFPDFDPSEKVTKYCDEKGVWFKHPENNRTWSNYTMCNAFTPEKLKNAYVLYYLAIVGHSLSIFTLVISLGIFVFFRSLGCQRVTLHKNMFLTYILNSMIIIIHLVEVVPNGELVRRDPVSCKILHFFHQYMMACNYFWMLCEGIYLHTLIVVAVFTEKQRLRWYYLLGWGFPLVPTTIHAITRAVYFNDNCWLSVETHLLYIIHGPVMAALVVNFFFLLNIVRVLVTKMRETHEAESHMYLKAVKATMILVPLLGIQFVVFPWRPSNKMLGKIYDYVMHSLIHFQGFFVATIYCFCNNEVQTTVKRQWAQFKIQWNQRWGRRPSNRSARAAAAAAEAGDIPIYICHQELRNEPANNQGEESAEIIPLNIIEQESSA

The target of assay [2] is T2, human amylin receptor (amylin 3(a) receptor: human calcitonin receptor plus RAMP-3) (human, UniProt P30988 25-474; O60896 24-148, limits assumed).
T2 sequence (looked up) 1: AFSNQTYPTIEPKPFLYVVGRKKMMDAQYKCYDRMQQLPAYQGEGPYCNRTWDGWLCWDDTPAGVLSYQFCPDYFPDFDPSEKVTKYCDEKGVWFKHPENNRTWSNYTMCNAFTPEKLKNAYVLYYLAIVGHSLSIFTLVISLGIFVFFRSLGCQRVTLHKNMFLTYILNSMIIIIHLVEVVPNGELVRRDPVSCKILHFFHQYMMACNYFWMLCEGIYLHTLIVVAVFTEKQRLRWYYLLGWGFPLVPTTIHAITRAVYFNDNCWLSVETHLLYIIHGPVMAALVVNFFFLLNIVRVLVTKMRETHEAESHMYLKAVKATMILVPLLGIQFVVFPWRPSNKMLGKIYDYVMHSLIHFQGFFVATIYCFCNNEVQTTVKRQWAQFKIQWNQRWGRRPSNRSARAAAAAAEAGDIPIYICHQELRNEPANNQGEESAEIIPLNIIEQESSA
T2 sequence (looked up) 2: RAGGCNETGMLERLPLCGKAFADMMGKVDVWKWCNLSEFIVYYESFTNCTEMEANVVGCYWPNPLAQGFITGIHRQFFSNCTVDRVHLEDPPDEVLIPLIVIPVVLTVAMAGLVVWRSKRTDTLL

For assay [3], the target named is T3, human amylin receptor (amylin 3(a) receptor: human calcitonin receptor with RAMP-3) (human, UniProt P30988 25-474; O60896 24-148).
T3 sequence (looked up) 1: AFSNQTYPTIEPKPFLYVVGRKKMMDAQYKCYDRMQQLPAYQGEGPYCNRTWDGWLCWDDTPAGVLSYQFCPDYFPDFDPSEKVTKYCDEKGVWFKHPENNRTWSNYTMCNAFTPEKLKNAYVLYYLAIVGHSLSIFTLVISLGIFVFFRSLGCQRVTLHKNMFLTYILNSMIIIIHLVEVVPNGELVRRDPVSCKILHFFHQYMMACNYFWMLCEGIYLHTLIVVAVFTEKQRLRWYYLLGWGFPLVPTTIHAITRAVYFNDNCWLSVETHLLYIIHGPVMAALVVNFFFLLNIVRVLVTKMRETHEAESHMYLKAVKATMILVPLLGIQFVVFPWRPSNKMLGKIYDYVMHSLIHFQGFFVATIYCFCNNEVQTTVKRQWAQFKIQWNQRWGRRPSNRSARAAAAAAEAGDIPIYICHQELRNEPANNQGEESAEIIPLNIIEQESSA
T3 sequence (looked up) 2: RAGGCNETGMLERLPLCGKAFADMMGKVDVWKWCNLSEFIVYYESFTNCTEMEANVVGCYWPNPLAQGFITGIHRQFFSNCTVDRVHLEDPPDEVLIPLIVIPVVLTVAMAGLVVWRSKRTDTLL

Assay [4] deals with T4, human calcitonin receptor (human, UniProt P30988 25-474).
T4 sequence (looked up): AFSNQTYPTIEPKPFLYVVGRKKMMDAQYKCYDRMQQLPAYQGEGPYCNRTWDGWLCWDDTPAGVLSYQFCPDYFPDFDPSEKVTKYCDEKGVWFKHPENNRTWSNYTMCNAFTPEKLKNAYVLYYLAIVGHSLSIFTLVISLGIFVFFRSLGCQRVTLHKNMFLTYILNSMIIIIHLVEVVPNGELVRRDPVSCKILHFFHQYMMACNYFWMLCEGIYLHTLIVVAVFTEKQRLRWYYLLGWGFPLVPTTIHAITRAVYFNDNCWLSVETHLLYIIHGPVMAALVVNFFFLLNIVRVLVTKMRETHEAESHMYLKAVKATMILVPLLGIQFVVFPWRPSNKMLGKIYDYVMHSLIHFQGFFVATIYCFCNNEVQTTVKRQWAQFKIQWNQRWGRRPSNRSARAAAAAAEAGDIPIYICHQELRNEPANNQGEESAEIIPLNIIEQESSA
The source holds these as a separate data set.

B1: N^α1-[(4S)-4-carboxy-4-(19-carboxynonadecanoylamino)butanoyl]-[Arg17,Pro21,Pro27,His34]-h-amylin (peptide)
peptide: KCNTATCATQRLANFLRHSSPNFGAIPSSTNVGHNTY
modifications: C20 diacid-gGlu on the alpha amino group of the N-terminal residue; Cys2-Cys7 disulfide and C-terminal amide as in human amylin
notes: also called compound 40
Take B1: in assay [1], the “Ratio hCT/hAmylin funct. (hCTR EC50 against hAmylin-R EC50)” value is 16.4 and the “hCTR funct. EC50” value is 2680 pM. Besides, the “hAmylin-R funct. EC50” value in assay [2] was 164 pM.

B2: N^α1-[(4S)-4-carboxy-4-(19-carboxynonadecanoylamino)butanoyl]-[Glu14,Arg17,Pro21,Pro27,Arg35]-h-amylin (peptide)
peptide: {C20 diacid-γGlu}-KCNTATCATQRLAEFLRHSSPNFGAIPSSTNVGSRTY-NH2
modifications: disulfide 2-7
SMILES: CC[C@H](C)[C@H](NC(=O)[C@H](C)NC(=O)CNC(=O)[C@H](Cc1ccccc1)NC(=O)[C@H](CC(N)=O)NC(=O)[C@@H]1CCCN1C(=O)[C@H](CO)NC(=O)[C@H](CO)NC(=O)[C@H](Cc1c[nH]cn1)NC(=O)[C@H](CCCNC(=N)N)NC(=O)[C@H](CC(C)C)NC(=O)[C@H](Cc1ccccc1)NC(=O)[C@H](CCC(=O)O)NC(=O)[C@H](C)NC(=O)[C@H](CC(C)C)NC(=O)[C@H](CCCNC(=N)N)NC(=O)[C@H](CCC(N)=O)NC(=O)[C@@H](NC(=O)[C@H](C)NC(=O)[C@@H]1CSSC[C@H](NC(=O)[C@H](CCCCN)NC(=O)CC[C@H](NC(=O)CCCCCCCCCCCCCCCCCCC(=O)O)C(=O)O)C(=O)N[C@@H](CC(N)=O)C(=O)N[C@@H]([C@@H](C)O)C(=O)N[C@@H](C)C(=O)N[C@@H]([C@@H](C)O)C(=O)N1)[C@@H](C)O)C(=O)N1CCC[C@H]1C(=O)N[C@@H](CO)C(=O)N[C@@H](CO)C(=O)N[C@H](C(=O)N[C@@H](CC(N)=O)C(=O)N[C@H](C(=O)NCC(=O)N[C@@H](CO)C(=O)N[C@@H](CCCNC(=N)N)C(=O)N[C@H](C(=O)N[C@@H](Cc1ccc(O)cc1)C(N)=O)[C@@H](C)O)C(C)C)[C@@H](C)O
notes: also called compound 16
In the case of B2, in assay [1], the “Ratio hCT/hAmylin funct. (hCTR EC50 against hAmylin-R EC50)” value is 6.1 and the “hCTR funct. EC50” value is 2220 pM. Also, in assay [2], the “hAmylin-R funct. EC50” value stood at 363 pM.

B3: N^α1-[(4S)-4-carboxy-4-(19-carboxynonadecanoylamino)butanoyl]-[Arg17,Pro21,Pro27,Pro31,Glu35]-h-amylin (peptide)
peptide: {C20 diacid-γGlu}-KCNTATCATQRLANFLRHSSPNFGAIPSSTPVGSETY-NH2
modifications: disulfide 2-7
SMILES: CC[C@H](C)[C@H](NC(=O)[C@H](C)NC(=O)CNC(=O)[C@H](Cc1ccccc1)NC(=O)[C@H](CC(N)=O)NC(=O)[C@@H]1CCCN1C(=O)[C@H](CO)NC(=O)[C@H](CO)NC(=O)[C@H](Cc1c[nH]cn1)NC(=O)[C@H](CCCNC(=N)N)NC(=O)[C@H](CC(C)C)NC(=O)[C@H](Cc1ccccc1)NC(=O)[C@H](CC(N)=O)NC(=O)[C@H](C)NC(=O)[C@H](CC(C)C)NC(=O)[C@H](CCCNC(=N)N)NC(=O)[C@H](CCC(N)=O)NC(=O)[C@@H](NC(=O)[C@H](C)NC(=O)[C@@H]1CSSC[C@H](NC(=O)[C@H](CCCCN)NC(=O)CC[C@H](NC(=O)CCCCCCCCCCCCCCCCCCC(=O)O)C(=O)O)C(=O)N[C@@H](CC(N)=O)C(=O)N[C@@H]([C@@H](C)O)C(=O)N[C@@H](C)C(=O)N[C@@H]([C@@H](C)O)C(=O)N1)[C@@H](C)O)C(=O)N1CCC[C@H]1C(=O)N[C@@H](CO)C(=O)N[C@@H](CO)C(=O)N[C@H](C(=O)N1CCC[C@H]1C(=O)N[C@H](C(=O)NCC(=O)N[C@@H](CO)C(=O)N[C@@H](CCC(=O)O)C(=O)N[C@H](C(=O)N[C@@H](Cc1ccc(O)cc1)C(N)=O)[C@@H](C)O)C(C)C)[C@@H](C)O
notes: also called compound 28
With B3, in assay [1], the “Ratio hCT/hAmylin funct. (hCTR EC50 against hAmylin-R EC50)” value was found to be 9.2 and the “hCTR funct. EC50” value was 2030 pM. Moreover, the “hAmylin-R funct. EC50” value in assay [2] worked out at 220 pM.

B4: N{Alpha-1}-[(4S)-4-carboxy-4-(19-carboxynonadecanoylamino)butanoyl]-[Glu14,Arg17,Pro21,Pro27,Lys34]-h-amylin (peptide)
peptide: {C20 diacid-γGlu}-KCNTATCATQRLAEFLRHSSPNFGAIPSSTNVGKNTY-NH2
modifications: disulfide 2-7
SMILES: CC[C@H](C)[C@H](NC(=O)[C@H](C)NC(=O)CNC(=O)[C@H](Cc1ccccc1)NC(=O)[C@H](CC(N)=O)NC(=O)[C@@H]1CCCN1C(=O)[C@H](CO)NC(=O)[C@H](CO)NC(=O)[C@H](Cc1c[nH]cn1)NC(=O)[C@H](CCCNC(=N)N)NC(=O)[C@H](CC(C)C)NC(=O)[C@H](Cc1ccccc1)NC(=O)[C@H](CCC(=O)O)NC(=O)[C@H](C)NC(=O)[C@H](CC(C)C)NC(=O)[C@H](CCCNC(=N)N)NC(=O)[C@H](CCC(N)=O)NC(=O)[C@@H](NC(=O)[C@H](C)NC(=O)[C@@H]1CSSC[C@H](NC(=O)[C@H](CCCCN)NC(=O)CC[C@H](NC(=O)CCCCCCCCCCCCCCCCCCC(=O)O)C(=O)O)C(=O)N[C@@H](CC(N)=O)C(=O)N[C@@H]([C@@H](C)O)C(=O)N[C@@H](C)C(=O)N[C@@H]([C@@H](C)O)C(=O)N1)[C@@H](C)O)C(=O)N1CCC[C@H]1C(=O)N[C@@H](CO)C(=O)N[C@@H](CO)C(=O)N[C@H](C(=O)N[C@@H](CC(N)=O)C(=O)N[C@H](C(=O)NCC(=O)N[C@@H](CCCCN)C(=O)N[C@@H](CC(N)=O)C(=O)N[C@H](C(=O)N[C@@H](Cc1ccc(O)cc1)C(N)=O)[C@@H](C)O)C(C)C)[C@@H](C)O
notes: also called compound 36
Take B4: the “hAmylin-R funct. EC50” value in assay [3] stood at 189 pM. Further, in assay [4], the “Ratio hCT/hAmylin funct.” value came out at 6.8 and the “hCTR funct. EC50” value was 1280 pM.

B5: N^α1 N^α1-[(4S)-4-carboxy-4-[[(4S)-4-carboxy-4-(19-carboxynonadecanoylamino)butanoyl]amino]butanoyl]-[Glu14,Arg17,Pro21,Pro27]-h-amylin (peptide)
peptide: {C20 diacid-γGlu-γGlu}-KCNTATCATQRLAEFLRHSSPNFGAIPSSTNVGSNTY-NH2
modifications: disulfide 2-7
SMILES: CC[C@H](C)[C@H](NC(=O)[C@H](C)NC(=O)CNC(=O)[C@H](Cc1ccccc1)NC(=O)[C@H](CC(N)=O)NC(=O)[C@@H]1CCCN1C(=O)[C@H](CO)NC(=O)[C@H](CO)NC(=O)[C@H](Cc1c[nH]cn1)NC(=O)[C@H](CCCNC(=N)N)NC(=O)[C@H](CC(C)C)NC(=O)[C@H](Cc1ccccc1)NC(=O)[C@H](CCC(=O)O)NC(=O)[C@H](C)NC(=O)[C@H](CC(C)C)NC(=O)[C@H](CCCNC(=N)N)NC(=O)[C@H](CCC(N)=O)NC(=O)[C@@H](NC(=O)[C@H](C)NC(=O)[C@@H]1CSSC[C@H](NC(=O)[C@H](CCCCN)NC(=O)CC[C@H](NC(=O)CC[C@H](NC(=O)CCCCCCCCCCCCCCCCCCC(=O)O)C(=O)O)C(=O)O)C(=O)N[C@@H](CC(N)=O)C(=O)N[C@@H]([C@@H](C)O)C(=O)N[C@@H](C)C(=O)N[C@@H]([C@@H](C)O)C(=O)N1)[C@@H](C)O)C(=O)N1CCC[C@H]1C(=O)N[C@@H](CO)C(=O)N[C@@H](CO)C(=O)N[C@H](C(=O)N[C@@H](CC(N)=O)C(=O)N[C@H](C(=O)NCC(=O)N[C@@H](CO)C(=O)N[C@@H](CC(N)=O)C(=O)N[C@H](C(=O)N[C@@H](Cc1ccc(O)cc1)C(N)=O)[C@@H](C)O)C(C)C)[C@@H](C)O
notes: also called compound 15
As for B5, the “hAmylin-R funct. EC50” value in assay [3] was 386 pM. For the same molecule, in assay [4], the “Ratio hCT/hAmylin funct.” value turned out to be 8.9 and the “hCTR funct. EC50” value was 3430 pM.
